Assay results taken from the Human Domainome abundance scans (Beltran et al. 2025).
± gives the uncertainty stated by the source.

B1: POU domain, class 3, transcription factor 3, residues 320 to 388; numbered along this chain, P20264 (parent)
chain: DDLEQFAKQFKQRRIKLGFTQADVGLALGTLYGNVFSQTTICRFEALQLSFKNMCKLKPLLNKWLEEAD

Variants of: B1
Experiment: abundance fitness (aPCA) (normalised: wild type 0, dead -1); higher = more abundant; growth selection in yeast, the domain comes from the species named
Conditions: Homo sapiens

Variant | abundance fitness
DDLEQFAKQFKQRRIKLGFTQADVGLALGTLYGNVFSQTTICRFEALQLSFKNMCHLKPLLNKWLEEAD | -0.61 ± 0.42
DDLEQFAKQFKQRRIKLGFTQADVGLALGTLYGNVFSQTTICRFEALQLSFKNMCILKPLLNKWLEEAD | -0.063 ± 0.2
DDLEQFAKQFKQRRIKLGFTQADVGLALGTLYGNVFSQTTICRFEALQLSFKNMCLLKPLLNKWLEEAD | -0.079 ± 0.064
DDLEQFAKQFKQRRIKLGFTQADVGLALGTLYGNVFSQTTICRFEALQLSFKNMCMLKPLLNKWLEEAD | -0.173 ± 0.11
DDLEQFAKQFKQRRIKLGFTQADVGLALGTLYGNVFSQTTICRFEALQLSFKNMCNLKPLLNKWLEEAD | -0.44 ± 0.24
DDLEQFAKQFKQRRIKLGFTQADVGLALGTLYGNVFSQTTICRFEALQLSFKNMCPLKPLLNKWLEEAD | -0.848 ± 0.28
DDLEQFAKQFKQRRIKLGFTQADVGLALGTLYGNVFSQTTICRFEALQLSFKNMCRLKPLLNKWLEEAD | 0.017 ± 0.053
DDLEQFAKQFKQRRIKLGFTQADVGLALGTLYGNVFSQTTICRFEALQLSFKNMCSLKPLLNKWLEEAD | -0.181 ± 0.08
DDLEQFAKQFKQRRIKLGFTQADVGLALGTLYGNVFSQTTICRFEALQLSFKNMCWLKPLLNKWLEEAD | -0.548 ± 0.12
DDLEQFAKQFKQRRIKLGFTQADVGLALGTLYGNVFSQTTICRFEALQLSFKNMCYLKPLLNKWLEEAD | -0.753 ± 0.45
DDLEQFAKQFKQRRIKLGFTQADVGLALGTLYGNVFSQTTICRFEALQLSFKNMCKAKPLLNKWLEEAD | -0.602 ± 0.17
DDLEQFAKQFKQRRIKLGFTQADVGLALGTLYGNVFSQTTICRFEALQLSFKNMCKEKPLLNKWLEEAD | -1.16 ± 0.42
DDLEQFAKQFKQRRIKLGFTQADVGLALGTLYGNVFSQTTICRFEALQLSFKNMCKGKPLLNKWLEEAD | -0.78 ± 0.2
DDLEQFAKQFKQRRIKLGFTQADVGLALGTLYGNVFSQTTICRFEALQLSFKNMCKHKPLLNKWLEEAD | -0.333 ± 0.2
DDLEQFAKQFKQRRIKLGFTQADVGLALGTLYGNVFSQTTICRFEALQLSFKNMCKKKPLLNKWLEEAD | -0.645 ± 0.36
DDLEQFAKQFKQRRIKLGFTQADVGLALGTLYGNVFSQTTICRFEALQLSFKNMCKMKPLLNKWLEEAD | -0.279 ± 0.15
DDLEQFAKQFKQRRIKLGFTQADVGLALGTLYGNVFSQTTICRFEALQLSFKNMCKPKPLLNKWLEEAD | 0.029 ± 0.14
DDLEQFAKQFKQRRIKLGFTQADVGLALGTLYGNVFSQTTICRFEALQLSFKNMCKRKPLLNKWLEEAD | -0.715 ± 0.091
DDLEQFAKQFKQRRIKLGFTQADVGLALGTLYGNVFSQTTICRFEALQLSFKNMCKSKPLLNKWLEEAD | -0.572 ± 0.16
DDLEQFAKQFKQRRIKLGFTQADVGLALGTLYGNVFSQTTICRFEALQLSFKNMCKTKPLLNKWLEEAD | -0.698 ± 0.35
DDLEQFAKQFKQRRIKLGFTQADVGLALGTLYGNVFSQTTICRFEALQLSFKNMCKVKPLLNKWLEEAD | -0.535 ± 0.082
DDLEQFAKQFKQRRIKLGFTQADVGLALGTLYGNVFSQTTICRFEALQLSFKNMCKWKPLLNKWLEEAD | -0.401 ± 0.12
DDLEQFAKQFKQRRIKLGFTQADVGLALGTLYGNVFSQTTICRFEALQLSFKNMCKLAPLLNKWLEEAD | -0.337 ± 0.094
DDLEQFAKQFKQRRIKLGFTQADVGLALGTLYGNVFSQTTICRFEALQLSFKNMCKLCPLLNKWLEEAD | 0.152 ± 0.27
DDLEQFAKQFKQRRIKLGFTQADVGLALGTLYGNVFSQTTICRFEALQLSFKNMCKLGPLLNKWLEEAD | -0.852 ± 0.22
DDLEQFAKQFKQRRIKLGFTQADVGLALGTLYGNVFSQTTICRFEALQLSFKNMCKLIPLLNKWLEEAD | -0.416 ± 0.34

Variant | abundance fitness
DDLEQFAKQFKQRRIKLGFTQADVGLALGTLYGNVFSQTTICRFEALQLSFKNMCKLLPLLNKWLEEAD | -0.875 ± 0.22
DDLEQFAKQFKQRRIKLGFTQADVGLALGTLYGNVFSQTTICRFEALQLSFKNMCKLRPLLNKWLEEAD | 0.031 ± 0.087
DDLEQFAKQFKQRRIKLGFTQADVGLALGTLYGNVFSQTTICRFEALQLSFKNMCKLSPLLNKWLEEAD | -0.796 ± 0.33
DDLEQFAKQFKQRRIKLGFTQADVGLALGTLYGNVFSQTTICRFEALQLSFKNMCKLTPLLNKWLEEAD | -0.892 ± 0.17
DDLEQFAKQFKQRRIKLGFTQADVGLALGTLYGNVFSQTTICRFEALQLSFKNMCKLVPLLNKWLEEAD | -0.398 ± 0.24
DDLEQFAKQFKQRRIKLGFTQADVGLALGTLYGNVFSQTTICRFEALQLSFKNMCKLKCLLNKWLEEAD | -0.064 ± 0.12
DDLEQFAKQFKQRRIKLGFTQADVGLALGTLYGNVFSQTTICRFEALQLSFKNMCKLKELLNKWLEEAD | -0.353 ± 0.3
DDLEQFAKQFKQRRIKLGFTQADVGLALGTLYGNVFSQTTICRFEALQLSFKNMCKLKGLLNKWLEEAD | -0.166 ± 0.17
DDLEQFAKQFKQRRIKLGFTQADVGLALGTLYGNVFSQTTICRFEALQLSFKNMCKLKKLLNKWLEEAD | -0.247 ± 0.21
DDLEQFAKQFKQRRIKLGFTQADVGLALGTLYGNVFSQTTICRFEALQLSFKNMCKLKLLLNKWLEEAD | -0.378 ± 0.2
DDLEQFAKQFKQRRIKLGFTQADVGLALGTLYGNVFSQTTICRFEALQLSFKNMCKLKMLLNKWLEEAD | -0.279 ± 0.15
DDLEQFAKQFKQRRIKLGFTQADVGLALGTLYGNVFSQTTICRFEALQLSFKNMCKLKQLLNKWLEEAD | -0.333 ± 0.12
DDLEQFAKQFKQRRIKLGFTQADVGLALGTLYGNVFSQTTICRFEALQLSFKNMCKLKRLLNKWLEEAD | -0.389 ± 0.084
DDLEQFAKQFKQRRIKLGFTQADVGLALGTLYGNVFSQTTICRFEALQLSFKNMCKLKSLLNKWLEEAD | -0.398 ± 0.16
DDLEQFAKQFKQRRIKLGFTQADVGLALGTLYGNVFSQTTICRFEALQLSFKNMCKLKTLLNKWLEEAD | -0.459 ± 0.2
DDLEQFAKQFKQRRIKLGFTQADVGLALGTLYGNVFSQTTICRFEALQLSFKNMCKLKVLLNKWLEEAD | -0.377 ± 0.13
DDLEQFAKQFKQRRIKLGFTQADVGLALGTLYGNVFSQTTICRFEALQLSFKNMCKLKWLLNKWLEEAD | -0.986 ± 0.35
DDLEQFAKQFKQRRIKLGFTQADVGLALGTLYGNVFSQTTICRFEALQLSFKNMCKLKPALNKWLEEAD | -0.51 ± 0.46
DDLEQFAKQFKQRRIKLGFTQADVGLALGTLYGNVFSQTTICRFEALQLSFKNMCKLKPKLNKWLEEAD | -0.334 ± 0.22
DDLEQFAKQFKQRRIKLGFTQADVGLALGTLYGNVFSQTTICRFEALQLSFKNMCKLKPRLNKWLEEAD | -0.491 ± 0.47
DDLEQFAKQFKQRRIKLGFTQADVGLALGTLYGNVFSQTTICRFEALQLSFKNMCKLKPSLNKWLEEAD | -0.563 ± 0.33
DDLEQFAKQFKQRRIKLGFTQADVGLALGTLYGNVFSQTTICRFEALQLSFKNMCKLKPVLNKWLEEAD | -0.309 ± 0.17
DDLEQFAKQFKQRRIKLGFTQADVGLALGTLYGNVFSQTTICRFEALQLSFKNMCKLKPWLNKWLEEAD | -0.227 ± 0.26
DDLEQFAKQFKQRRIKLGFTQADVGLALGTLYGNVFSQTTICRFEALQLSFKNMCKLKPLANKWLEEAD | -0.803 ± 0.21
DDLEQFAKQFKQRRIKLGFTQADVGLALGTLYGNVFSQTTICRFEALQLSFKNMCKLKPLCNKWLEEAD | -0.796 ± 0.37
DDLEQFAKQFKQRRIKLGFTQADVGLALGTLYGNVFSQTTICRFEALQLSFKNMCKLKPLENKWLEEAD | -0.99 ± 0.35

Variant | abundance fitness
DDLEQFAKQFKQRRIKLGFTQADVGLALGTLYGNVFSQTTICRFEALQLSFKNMCKLKPLGNKWLEEAD | -0.891 ± 0.17
DDLEQFAKQFKQRRIKLGFTQADVGLALGTLYGNVFSQTTICRFEALQLSFKNMCKLKPLINKWLEEAD | -0.696 ± 0.23
DDLEQFAKQFKQRRIKLGFTQADVGLALGTLYGNVFSQTTICRFEALQLSFKNMCKLKPLKNKWLEEAD | -0.66 ± 0.39
DDLEQFAKQFKQRRIKLGFTQADVGLALGTLYGNVFSQTTICRFEALQLSFKNMCKLKPLMNKWLEEAD | -0.522 ± 0.14
DDLEQFAKQFKQRRIKLGFTQADVGLALGTLYGNVFSQTTICRFEALQLSFKNMCKLKPLPNKWLEEAD | -0.928 ± 0.25
DDLEQFAKQFKQRRIKLGFTQADVGLALGTLYGNVFSQTTICRFEALQLSFKNMCKLKPLQNKWLEEAD | -0.811 ± 0.27
DDLEQFAKQFKQRRIKLGFTQADVGLALGTLYGNVFSQTTICRFEALQLSFKNMCKLKPLRNKWLEEAD | -0.97 ± 0.17
DDLEQFAKQFKQRRIKLGFTQADVGLALGTLYGNVFSQTTICRFEALQLSFKNMCKLKPLSNKWLEEAD | -0.977 ± 0.3
DDLEQFAKQFKQRRIKLGFTQADVGLALGTLYGNVFSQTTICRFEALQLSFKNMCKLKPLTNKWLEEAD | -0.513 ± 0.25
DDLEQFAKQFKQRRIKLGFTQADVGLALGTLYGNVFSQTTICRFEALQLSFKNMCKLKPLVNKWLEEAD | -0.513 ± 0.11
DDLEQFAKQFKQRRIKLGFTQADVGLALGTLYGNVFSQTTICRFEALQLSFKNMCKLKPLWNKWLEEAD | -0.881 ± 0.24
DDLEQFAKQFKQRRIKLGFTQADVGLALGTLYGNVFSQTTICRFEALQLSFKNMCKLKPLLAKWLEEAD | 0.001 ± 0.084
DDLEQFAKQFKQRRIKLGFTQADVGLALGTLYGNVFSQTTICRFEALQLSFKNMCKLKPLLDKWLEEAD | 0.024 ± 0.24
DDLEQFAKQFKQRRIKLGFTQADVGLALGTLYGNVFSQTTICRFEALQLSFKNMCKLKPLLGKWLEEAD | 0.052 ± 0.067
DDLEQFAKQFKQRRIKLGFTQADVGLALGTLYGNVFSQTTICRFEALQLSFKNMCKLKPLLHKWLEEAD | 0.11 ± 0.23
DDLEQFAKQFKQRRIKLGFTQADVGLALGTLYGNVFSQTTICRFEALQLSFKNMCKLKPLLKKWLEEAD | -0.12 ± 0.26
DDLEQFAKQFKQRRIKLGFTQADVGLALGTLYGNVFSQTTICRFEALQLSFKNMCKLKPLLLKWLEEAD | -0.126 ± 0.083
DDLEQFAKQFKQRRIKLGFTQADVGLALGTLYGNVFSQTTICRFEALQLSFKNMCKLKPLLQKWLEEAD | -0.028 ± 0.11
DDLEQFAKQFKQRRIKLGFTQADVGLALGTLYGNVFSQTTICRFEALQLSFKNMCKLKPLLRKWLEEAD | -0.063 ± 0.076
DDLEQFAKQFKQRRIKLGFTQADVGLALGTLYGNVFSQTTICRFEALQLSFKNMCKLKPLLSKWLEEAD | 0.03 ± 0.046
DDLEQFAKQFKQRRIKLGFTQADVGLALGTLYGNVFSQTTICRFEALQLSFKNMCKLKPLLVKWLEEAD | 0.148 ± 0.076
DDLEQFAKQFKQRRIKLGFTQADVGLALGTLYGNVFSQTTICRFEALQLSFKNMCKLKPLLWKWLEEAD | -0.739 ± 0.27
DDLEQFAKQFKQRRIKLGFTQADVGLALGTLYGNVFSQTTICRFEALQLSFKNMCKLKPLLNAWLEEAD | -0.129 ± 0.06
DDLEQFAKQFKQRRIKLGFTQADVGLALGTLYGNVFSQTTICRFEALQLSFKNMCKLKPLLNCWLEEAD | -0.147 ± 0.11
DDLEQFAKQFKQRRIKLGFTQADVGLALGTLYGNVFSQTTICRFEALQLSFKNMCKLKPLLNDWLEEAD | -0.349 ± 0.21
DDLEQFAKQFKQRRIKLGFTQADVGLALGTLYGNVFSQTTICRFEALQLSFKNMCKLKPLLNEWLEEAD | -0.519 ± 0.13
